Laboratory results as given in patent US20250276057A1.

Target: IgE antibodies in four Pru p 7 reactive human sera
Assay: ImmunoCAP IgE inhibition, inhibitor in solution at 20 ug/mL, rPru p 7 on solid phase

percent inhibition of IgE binding to rPru p 7 (fourth serum): 80%
B1: recombinant Cup s GRPb (protein)
chain: AQIDCDKECNRRCSKASLHDRCLKYCGICCEKCHCVPPGTAGNEDVCPCYAHLKNSKGGHKCP
